The record followed here is publication PMC11949838, “FUT10 and FUT11 are protein O-fucosyltransferases that modify protein EMI domains” (Nature Chemical Biology, 2025).

The target in data set [1] is human MMRN1 N-terminal EMI-Myc-His6 (first 290 amino acids of Multimerin-1, wild type) (human) (UniProt Q13201).
Another data set addresses T1, GFP–FUT10 (POFUT3) (Homo sapiens, UniProt Q6P4F1).
T1 sequence (Q6P4F1 34-479 limits assumed): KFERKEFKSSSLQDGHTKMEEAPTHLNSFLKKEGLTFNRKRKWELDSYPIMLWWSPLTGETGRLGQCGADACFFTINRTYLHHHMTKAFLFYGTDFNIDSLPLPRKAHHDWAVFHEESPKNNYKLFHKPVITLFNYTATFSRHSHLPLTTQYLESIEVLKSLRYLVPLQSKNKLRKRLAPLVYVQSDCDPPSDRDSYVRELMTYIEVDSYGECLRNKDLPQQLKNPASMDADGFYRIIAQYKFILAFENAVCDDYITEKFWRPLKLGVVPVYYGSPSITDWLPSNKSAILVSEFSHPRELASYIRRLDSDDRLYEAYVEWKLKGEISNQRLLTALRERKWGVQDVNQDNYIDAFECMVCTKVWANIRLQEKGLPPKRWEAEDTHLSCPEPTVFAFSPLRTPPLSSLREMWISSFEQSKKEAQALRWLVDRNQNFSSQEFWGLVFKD
The data set can be described thus: nano LC-MS/MS of O-fucosylated EMI peptides. It is filed as biochemical. Particulars: donor; 100 μM with 0.5 μM non-fucosylated MMRN1 N-terminal EMI, 50 mM HEPES pH 7, 37 °C.

In the next data set the target is T2, GFP–FUT8 (Homo sapiens, UniProt Q9BYC5).
T2 sequence (Q9BYC5 31-575 limits assumed): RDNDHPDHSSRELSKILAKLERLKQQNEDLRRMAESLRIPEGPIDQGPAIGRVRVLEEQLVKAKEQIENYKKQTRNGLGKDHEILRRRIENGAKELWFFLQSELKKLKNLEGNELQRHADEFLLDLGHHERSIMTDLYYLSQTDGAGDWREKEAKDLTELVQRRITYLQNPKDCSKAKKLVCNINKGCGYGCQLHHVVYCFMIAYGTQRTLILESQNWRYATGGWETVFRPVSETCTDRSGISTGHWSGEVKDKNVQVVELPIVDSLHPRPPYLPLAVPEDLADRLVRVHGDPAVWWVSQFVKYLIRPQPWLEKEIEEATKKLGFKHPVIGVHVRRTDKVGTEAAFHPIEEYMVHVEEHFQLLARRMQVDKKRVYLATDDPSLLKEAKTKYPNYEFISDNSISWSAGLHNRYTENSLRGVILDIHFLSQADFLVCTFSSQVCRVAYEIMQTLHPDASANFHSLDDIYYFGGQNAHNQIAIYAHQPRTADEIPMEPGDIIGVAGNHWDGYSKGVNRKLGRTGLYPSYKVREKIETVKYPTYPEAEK
The experiment in a line: nano LC-MS/MS of N-glycan fucosylation on EMI. Format: biochemical. The settings on record: donor; 100 μM with 0.5 μM non-fucosylated MMRN1 N-terminal EMI, 50 mM HEPES pH 7, 37 °C, 30 min; positive control.

The nature of data set [2]: western blot of cell lysates. Particulars: glycan lost; control: wild type full-length MMRN1. On the technique in general: A western blot detects proteins with antibodies after separation by electrophoresis.
Data set [3] can be described thus: anti-Myc western blot of medium, normalised to IgG. Particulars: glycan lost; control: wild type full-length MMRN1.
Substrate in data set [4]: C[C@@H]1O[C@H](OP(=O)(O)OP(=O)(O)OC[C@H]2O[C@@H](n3cnc4c(=O)[nH]c(N)nc43)[C@H](O)[C@@H]2O)[C@@H](O)[C@H](O)[C@@H]1O
The data set can be described thus: nano LC-MS/MS glycopeptide quantification, Michaelis-Menten fit. It is filed as biochemical, Homo sapiens. Particulars: donor, 20 μM non-fucosylated MMRN1 N-terminal EMI, 0.3 mM MnCl2, 50 mM HEPES pH 7, 37 °C, 15 min, same value for T216 and T265 sites.

Consider “GFP–FUT11 (human FUT11 lacking the transmembrane domain, from pGEn2-GFP-hFUT11) (from UniProt Q495W5 1-492) (enzyme)”, for which the Km for non-fucosylated N-terminal EMI at the T216 site; O-fucosylation kinetics by LC-MS/MS, Michaelis–Menten fit, 50 nM enzyme, 100 μM GDP-fucose, 0.3 mM MnCl2, 37 °C, 15 min in data set [1] is 6.74 µM.

For `C[C@@H]1O[C@H](OP(=O)(O)OP(=O)(O)OC[C@H]2O[C@@H](n3cnc4c(=O)[nH]c(N)nc43)[C@H](O)[C@@H]2O)[C@@H](O)[C@H](O)[C@@H]1O` [GDP-fucose], the “nano LC-MS/MS of O-fucosylated EMI peptides” value on GFP–FUT10 (POFUT3) was “Both GFP–FUT10 and GFP–FUT11 can independently add fucose to EMI substrates”. The “nano LC-MS/MS of N-glycan fucosylation on EMI” value on GFP–FUT8 is “GFP–FUT8 was used as a positive control, and it robustly added fucose to N-glycans”.

B1: Multimerin-1 (MMRN1): T1055A (protein)
parent chain: MKGARLFVLLSSLWSGGIGLNNSKHSWTIPEDGNSQKTMPSASVPPNKIQSLQILPTTRVMSAEIATTPEARTSEDSLLKSTLPPSETSAPAEGVRNQTLTSTEKAEGVVKLQNLTLPTNASIKFNPGAESVVLSNSTLKFLQSFARKSNEQATSLNTVGGTGGIGGVGGTGGVGNRAPRETYLSRGDSSSSQRTDYQKSNFETTRGKNWCAYVHTRLSPTVILDNQVTYVPGGKGPCGWTGGSCPQRSQKISNPVYRMQHKIVTSLDWRCCPGYSGPKCQLRAQEQQSLIHTNQAESHTAVGRGVAEQQQQQGCGDPEVMQKMTDQVNYQAMKLTLLQKKIDNISLTVNDVRNTYSSLEGKVSEDKSREFQSLLKGLKSKSINVLIRDIVREQFKIFQNDMQETVAQLFKTVSSLSEDLESTRQIIQKVNESVVSIAAQQKFVLVQENRPTLTDIVELRNHIVNVRQEMTLTCEKPIKELEVKQTHLEGALEQEHSRSILYYESLNKTLSKLKEVHEQLLSTEQVSDQKNAPAAESVSNNVTEYMSTLHENIKKQSLMMLQMFEDLHIQESKINNLTVSLEMEKESLRGECEDMLSKCRNDFKFQLKDTEENLHVLNQTLAEVLFPMDNKMDKMSEQLNDLTYDMEILQPLLEQGASLRQTMTYEQPKEAIVIRKKIENLTSAVNSLNFIIKELTKRHNLLRNEVQGRDDALERRINEYALEMEDGLNKTMTIINNAIDFIQDNYALKETLSTIKDNSEIHHKCTSDMETILTFIPQFHRLNDSIQTLVNDNQRYNFVLQVAKTLAGIPRDEKLNQSNFQKMYQMFNETTSQVRKYQQNMSHLEEKLLLTTKISKNFETRLQDIESKVTQTLIPYYISVKKGSVVTNERDQALQLQVLNSRFKALEAKSIHLSINFFSLNKTLHEVLTMCHNASTSVSELNATIPKWIKHSLPDIQLLQKGLTEFVEPIIQIKTQAALSNLTCCIDRSLPGSLANVVKSQKQVKSLPKKINALKKPTVNLTTVLIGRTQRNTDNIIYPEEYSSCSRHPCQNGGTCINGRTSFTCACRHPFTGDNCTIKLVEENALAPDFSKGSYRYAPMVAFFASHTYGMTIPGPILFNNLDVNYGASYTPRTGKFRIPYLGVYVFKYTIESFSAHISGFLVVDGIDKLAFESENINSEIHCDRVLTGDALLELNYGQEVWLRLAKGTIPAKFPPVTTFSGYLLYRT
As for B1, the expression_or_secretion entry in data set [2] is recorded as “no change”. The “expression_or_secretion, other: % reduction vs WT” value in data set [3] was “abolishes”.

B2: GFP–FUT11 (POFUT4) (Homo sapiens) (protein)
chain: AGGEAEWAEPWDGAVFRPPSALGAVGVTRSSGTPRPGREEAGDLPVLLWWSPGLFPHFPGDSERIECARGACVASRNRRALRDSRTRALLFYGTDFRASAAPLPRLAHQSWALLHEESPLNNFLLSHGPGIRLFNLTSTFSRHSDYPLSLQWLPGTAYLRRPVPPPMERAEWRRRGYAPLLYLQSHCDVPADRDRYVRELMRHIPVDSYGKCLQNRELPTARLQDTATATTEDPELLAFLSRYKFHLALENAICNDYMTEKLWRPMHLGAVPVYRGSPSVRDWMPNNHSVILIDDFESPQKLAEFIDFLDKNDEEYMKYLAYKQPGGITNQFLLDSLKHREWGVNDPLLPNYLNGFECFVCDYELARLDAEKAHAASPGDSPVFEPHIAQPSHMDCPVPTPGFGNVEEIPENDSWKEMWLQDYWQGLDQGEALTAMIHNNETEQTKFWDYLHEIFMKRQHL
For B2, the Km in data set [4] came out at 5 µM.

In general, Km refers to the concentration of substrate that gives half-maximal velocity.
